Data reported in PMC5422877.

Assays:
[1] = biological target: MqsA-CHis;MqsR (Pseudomonas putida KT2440;Pseudomonas putida KT2440) (UniProt Q88F94+Q88F93); test: EMSA; conditions: 10 mM HEPES pH 7.3, 20 mM KCl, 1 mM MgCl2, 5% glycerol, NP-40, poly dI-dC, 0.05 pmol biotin probe in 20 ul, 25 C, 1 h
[2] = biological target: T1, MqsA-CHis (Pseudomonas putida KT2440) (UniProt Q88F94); test: EMSA; conditions: 10 mM HEPES pH 7.3, 20 mM KCl, 1 mM MgCl2, 5% glycerol, NP-40, poly dI-dC, 0.05 pmol biotin probe in 20 ul, 25 C, 1 h
T1 sequence: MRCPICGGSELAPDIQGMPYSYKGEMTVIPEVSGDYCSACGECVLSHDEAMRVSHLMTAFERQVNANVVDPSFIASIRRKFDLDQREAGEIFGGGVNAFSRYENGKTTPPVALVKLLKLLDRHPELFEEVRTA

## CTATTAGCCAAATTTAACCTGGAAGGTTAATTTCTCATGGAAAAGAGAATGCCTCATTGCCCGCTGGAGCGGGTAAAAGCCCTGGCTGCGGCAAGGCGAATCCGCCCTACGGGTGCTGCATTGAAAGGCG (double strand) [PmqsRA]
[1]
  binding: no binding
[2]
  binding: binds
